Here are results for two compounds from publication PMC9527319, “^99mTc-labeled iRGD for single-positron emission computed tomography imaging of triple-negative breast cancer” (Frontiers in Bioengineering and Biotechnology, 2022).

Structures are written as SMILES. Like-named read-outs stand apart in the source and are kept apart here. Bridge positions count the residues as written; N and C are the ends. Peptide text beside a SMILES is read from it. * marks the point of attachment. HYNIC = NNc1ccc(C(=O)*)cn1

Data set [1] is described as follows: In vitro stability of 99mTc-labeled peptides in PBS and cysteine solution (RCP by TLC). The format is physicochemical. As to conditions: PBS (0.1 M, pH = 7.4) and cysteine solution (100-fold molar excess over the peptides), room temperature, within 6 h, RCP by TLC (silica gel 60 F254, 50% acetonitrile). The method, then: (§1) HYNIC-iRGD, HYNIC-iRGE, and HYNIC-CG7C were labeled with ^99mTc according to previously published procedures in the literature ([Bohn et al., 2013]; [Xu et al., 2017]; [Gong et al., 2022]). In brief, a mixture of 50 μl HYNIC-modified peptide (1 mg/ml in water), 0.5 ml EDDA solution (20 mg/ml in 0.1 M NaOH), 0.5 ml tricine solution (40 mg/ml in 0.2 M PBS, pH = 6.0), 1 ml Na^99mTcO4 solution (50 mCi/ml), and 50 μl SnCl2 solution (1 mg/ml in 0.1 M HCl) were heated at 100°C for 15 min. After cooling to room temperature, the mixture was analyzed using instant thin-layer chromatography (TLC) and radio-high-performance liquid chromatography (radio-HPLC). The ^99mTc-labeled peptides were characterized using an Agilent 1260 HPLC system (Agilent Technologies, United States) equipped with a UV-vis detector (λ = 220 nm) and a radioactive flow detector (BioScan, United States). A SunFire C18 column (5 μm, 4.6 × 250 mm, Waters, Japan) was used at a flow rate of 1 ml/min with the following gradient method: 0.1% Trifluoroacetic acid in H2O and CH3CN (0–20 min, 10%–35% CH3CN) for iRGD and iRGE, and 0.1% trifluoroacetic acid in H2O and CH3CN (0–20 min, 25%–60% CH3CN) for CG7C. Their RCPs were determined by radio-HPLC and rapidly analyzed by TLC in a system consisting of silica gel 60 F254 TLC plates (Merck, Germany) and 50% acetonitrile as mobile phase. […]

Data set [2] in a line: In vitro stability of 99mTc-labeled peptides in FBS (RCP by TLC). The format is in vitro ADME, bovine. As to conditions: FBS at 37°C, within 6 h, RCP by TLC (silica gel 60 F254, 50% acetonitrile). The method, then:
as §1

Data set [3] concerns 4T1 tumor-bearing mice. To be noted: for course of SPECT signal in tumor with time: i.v. tail vein, 0.5, 1, 2 and 4 h post-injection; for tumor accumulation (SPECT): i.v. tail vein, 0.5 h post-injection. From the text:
Murine breast cancer cells 4T1 were purchased from Procell Life Science and Technology Co., Ltd. (Wuhan, China) and maintained in RPMI-1640 supplemented with 10% FBS. Four-week-old female BALB/c nude mice (18–20 g) and healthy ICR mice (20–22 g) were purchased from Shanghai Laboratory Animal Center of the Chinese Academy of Sciences (Shanghai, China). To establish breast cancer models, four-week-old female BALB/c nude mice were subcutaneously injected in their right-side flanks with 5 × 10^6 4T1 cells suspended in 100 μl of PBS. When the tumor diameter reached 0.8–1.2 cm, the mice were used for animal experiments. All animal experiments were repeated three times and performed according to the protocols established by the Ethics Committee of Shanghai General Hospital.
The 4T1 tumor-bearing mice were randomly divided into three groups (three mice per group). After anesthetization with pentobarbital sodium (40 mg/kg), 200 μl of ^99mTc-HYNIC-iRGD, ^99mTc-HYNIC-iRGE, or ^99mTc-HYNIC-CG7C ([^99mTc] = 10 mCi/ml) was injected via the tail vein. SPECT images were acquired at 0.5, 1, 2, and 4 h post-injection using a SPECT imaging system equipped with a Xeleris 2.0 workstation and low-energy general-purpose collimators (Infinia, Denver, CO, United States).

Data set [4] is described as follows: Pharmacokinetics (blood radioactivity-time curve). The format is in vivo. As to conditions: healthy ICR mice; for clear-phase half-life t1/2(β) / distribution phase half-life t1/2(α): i.v., blood, two-compartment model (DAS 2.0); for tissue uptake at 1 min / tissue uptake at 0.5 h / tissue uptake at 3 h: mouse, whole blood, iv, 20 uCi, total radioactivity, i.v. 20 μCi in 200 μl PBS, γ-counter, read-out: radioactivity level in blood; for tissue uptake at 1 min / tissue uptake at 0.5 h: mean ± SD; for tissue uptake at 0.5 h: 30 min; for tissue uptake at 3 h: 180 min. Here is the method: The pharmacokinetic profiles of ^99mTc-HYNIC-iRGD and ^99mTc-HYNIC-iRGE were evaluated in healthy ICR mice. Each mouse was intravenously injected with ^99mTc-HYNIC-iRGD or ^99mTc-HYNIC-iRGE at a dose of 20 μCi in 200 μl PBS solution. Blood samples ([…]) from each mouse were immediately collected and weighed at designated times (1, 2, 5, 15, 30, 60, 120, and 180 min), and the radioactivity was measured using a γ-counter to calculate the %ID/g. Moreover, the pharmacokinetic data were analyzed by DAS 2.0 (Shanghai, China) using a two-compartment model to calculate the half-lives of ^99mTc-HYNIC-iRGD and ^99mTc-HYNIC-iRGE in blood.

In data set [5] the test system is 4T1 tumor-bearing mice. Kind of data set: Biodistribution (gamma-counter, %ID/g). Format: in vivo. Here is the method: The radioactivity counts of all samples were measured using a γ-counter (CAPINTEC, United States) and expressed as counts per minute after correction for decay. The results are shown as the percentage of injection dose/gram (%ID/g) of wet tissue for each time point in each group.

Where [6] appears, read: i.v. 20 μCi, 4 h post-injection.

Take `N=C(N)NCCC[C@@H]1NC(=O)[C@@H](NC(=O)c2ccc(NN)nc2)CSSC[C@@H](C(=O)O)NC(=O)[C@H](CC(=O)O)NC(=O)[C@@H]2CCCN2C(=O)CNC(=O)[C@H](CCCCN)NC(=O)[C@H](CCC(=O)O)NC(=O)CNC1=O` [^99mTc-HYNIC-iRGE, metal not drawn] ({HYNIC}-CRGEKGPDC-OH; disulfide 1-9 (inferred); N-terminus and C-terminus assumed): in data set [1], the “changes in RCPs (stability in vitro)” value is on record as “no obvious changes in RCPs”. Also, the “changes in RCPs (stability in vitro)” value in data set [2] is given as “no obvious changes in RCPs”. Also, in the data set with 4T1 tumor-bearing mice [3] (4T1 tumor-bearing nude mice), the “course of SPECT signal in tumor with time” value was “gradually faded with time” and the “tumor accumulation (SPECT)” value is recorded as “distinct tumor accumulation”. Moreover, the “radioactivity in bladder and kidneys (SPECT; clearance through the urinary system)” value in the data set with 4T1 tumor-bearing mice [3] (mouse, in vivo, iv) is recorded as “high radioactivity”. In data set [4], the “clear-phase half-life t1/2(β)” value amounted to 10.56 min, the “distribution phase half-life t1/2(α)” value amounted to 0.88 min, the tissue uptake at 1 min came out at 19.3 ± 2.52 %ID/g and the tissue uptake at 0.5 h stood at 1.06 ± 0.08 %ID/g. Besides, in data set [4], the tissue uptake at 3 h is about 0.1 %ID/g.

Consider `N=C(N)NCCC[C@@H]1NC(=O)[C@@H](NC(=O)c2ccc(NN)nc2)CSSC[C@@H](C(=O)O)NC(=O)[C@H](CC(=O)O)NC(=O)[C@@H]2CCCN2C(=O)CNC(=O)[C@H](CCCCN)NC(=O)[C@H](CC(=O)O)NC(=O)CNC1=O` [^99mTc-HYNIC-iRGD, metal not drawn], for which the “changes in RCPs (stability in vitro)” value in data set [1] is on record as “no obvious changes in RCPs”. In data set [2], the “changes in RCPs (stability in vitro)” value is reported as “no obvious changes in RCPs”. Besides, in the data set on 4T1 tumor-bearing mice [3] (4T1 tumor-bearing nude mice), the “course of SPECT signal in tumor with time” value is on record as “increase in tumor accumulation of radioactivity” and the “tumor accumulation (SPECT)” value is given as “distinct tumor accumulation”. Also, the “radioactivity in bladder and kidneys (SPECT; clearance through the urinary system)” value in the data set on 4T1 tumor-bearing mice [3] (4T1 tumor-bearing nude mice, i.v., each time point 0.5–4 h) is recorded as “high radioactivity”. In addition, the “tumor-to-muscle (T/M) ratio” value with 4T1 tumor-bearing mice [5] (i.v. 20 μCi, 0.5, 1, 2 and 4 h post-injection) is recorded as “higher in mice treated with ^99mTc-HYNIC-iRGD than in those treated with ^99mTc-HYNIC-iRGE at each time point”. The “tumor-to-kidney (T/K) ratio” value in the data set with 4T1 tumor-bearing mice [5] (i.v. 20 μCi, 0.5–4 h post-injection) was “much higher than for ^99mTc-HYNIC-iRGE and ^99mTc-HYNIC-CG7C”. Also, in the data set on 4T1 tumor-bearing mice [5] (setting [6]), the “tumor-to-blood (T/B) ratio” value stood at 1.8 and the “tumor-to-lung (T/Lu) ratio” value is 1.9. In addition, in data set [4], the “clear-phase half-life t1/2(β)” value is listed as 12.54 min, the “distribution phase half-life t1/2(α)” value was 1.43 min, the tissue uptake at 1 min turned out to be 14.3 ± 0.95 %ID/g and the tissue uptake at 0.5 h was found to be 1.26 ± 0.11 %ID/g. Also, the tissue uptake at 3 h in data set [4] was about 0.1 %ID/g.
